The assay deals with T1, Recombinant human CD137 (R&D systems), biotinylated (human, UniProt Q07011 24-186, biotinylated with EZ-Link Sulfo-NHS-LC-LC-Biotin).
T1 construct: Bought protein; Captured on a streptavidin chip; also called human CD137 protein; 4-1BB
The assay can be described thus: SPR (Biacore), biotinylated human CD137 captured on streptavidin chip, peptide as analyte, 25°C; BCY7742 (Monomer 3A), a separate monomer number from BCY8095. On the procedure:
Biacore experiments were performed to determine kₐ (M⁻¹s⁻¹), kd (s⁻¹), KD (nM) values of monomeric peptides binding to human CD137 protein. […] The protein was desalted to remove uncoupled biotin using spin columns into PBS.
For analysis of peptide binding, a Biacore T200 or a Biacore 3000 instrument was used with a XanTec CMD500D chip. Streptavidin was immobilized on the chip using standard amine-coupling chemistry at 25° C. with HBS-N(10 mM HEPES, 0.15 M NaCl, pH 7.4) as the running buffer. Briefly, the carboxymethyl dextran surface was activated with a 7 min injection of a 1:1 ratio of 0.4 M 1-ethyl-3-(3-dimethylaminopropyl) carbodiimide hydrochloride (EDC)/0.1 M N-hydroxy succinimide (NHS) at a flow rate of 10 μl/min. For capture of streptavidin, the protein was diluted to 0.2 mg/ml in 10 mM sodium acetate (pH 4.5) and captured by injecting 120 μl of onto the activated chip surface. Residual activated groups were blocked with a 7 min injection of 1 M ethanolamine (pH 8.5) and biotinylated CD137 captured to a level of 270-1500 RU. Buffer was changed to PBS/0.05% Tween 20 and a dilution series of the peptides was prepared in this buffer with a final DMSO concentration of 0.5%. The top peptide concentration was 500 nM with 6 further 2-fold or 3-fold dilutions. The SPR analysis was run at 25° C. at a flow rate of 90 μl/min with 60 seconds association and 900 seconds dissociation. […]
A general note: In SPR one partner is held on a chip, and binding of the other changes the refractive index at the surface.

Starred links: 1 amine or outer side, 2 acyl side, 3 side chain; linkers in the order of their positions; H or OH if unused. Positions of bridges follow the written chain, without caps; N, C: chain ends. Non-standard residues stand in square brackets, D forms with d. No end group written: not given here. TATA = O=C(CC[*:1])N1CN(C(=O)CC[*:2])CN(C(=O)CC[*:3])C1; Nle = CCCC[C@H](N)C(=O)O; PYA = propargyl-acid

Here are results for one molecule from US20230220008A1 (Bicycle, published 2023).

Usually Kd stands for the constant that tells how readily two partners part at equilibrium.

T1 sequence (Q07011 24-186 limits assumed): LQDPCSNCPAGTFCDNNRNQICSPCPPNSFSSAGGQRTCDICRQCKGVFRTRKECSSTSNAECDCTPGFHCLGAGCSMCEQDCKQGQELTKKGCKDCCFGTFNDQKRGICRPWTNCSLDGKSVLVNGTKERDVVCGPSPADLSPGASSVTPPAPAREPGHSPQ

B1: BCY7742 (peptide)
peptide: Ac-ACIK(PYA)EGQYCFADPY[Nle]CA
modifications: linker 2-9-16 via TATA
notes: Bicyclic peptide monomer; also called Monomer 3A
For the molecule B1, the Kd came out at 0.855 µM.
